Measured values: patent publication WO2022068891A1 (dated 2022)

Tests used:
[1] = molecular target: T1, Biotinylated PD-1-huIgG1 Fc (Kactus Biosystems) (UniProt Q15116 25-167, limits assumed, biotinylated (site not given)); assay: neutralisation ELISA: PD-L1-huIgG1 Fc coated, antibody titrated against biotinylated PD-1-huIgG1 Fc
T1 construct: the whole entry is named

[2] = molecular target: T2, PD-1 Protein, Human, Recombinant (His Tag) (Beijing Yiqiao Shenzhou / Sino Biological) (human, UniProt Q15116 25-167); assay: binding ELISA: human PD-1 His tag protein coated at 0.5 ug/ml, antibody in two-fold dilutions from 10 ug/ml
T2 construct: Bought reagent; the whole entry is named
T2 sequence (Q15116 25-167 limits assumed): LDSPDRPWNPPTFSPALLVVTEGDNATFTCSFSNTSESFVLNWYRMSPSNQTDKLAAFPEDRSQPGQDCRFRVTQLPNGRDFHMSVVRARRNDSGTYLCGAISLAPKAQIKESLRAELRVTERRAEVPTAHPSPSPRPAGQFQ

T1 sequence (Q15116 25-167 limits assumed): as above

B1: 6H6 hIgG1 form antibody (antibody, V domains shown)
VH: EVKLVESGGGLVKPGGSLKLSCAASGFTFSSYGMSWVRQTPEKRLEWVATISGGGRYTYYPDSVKGRFTISRDNAKNNLYLQMSSLRSEDTALYYCASIYDGYYFDYWGHGTTLTVSS
VL: DIVITQSPATLSVTPGDSVSLSCRASQSISNNLHWYQKKSHESPRLLIKYASQSISGIPSRFSGSGSGTDFTLSINSVETEDFGMYFCQQSNSWPLTFGAGTKLELK
notes: also called 6H6 antibody; 6H6 huIgG1 antibody
- IC50 [1]: 3.6 µg/mL
- EC50 [2]: 0.0172 µg/mL
